Test results: patent US7910100B2, “Antibodies directed to the mammalian EAG1 ion channel protein” (Max-Planck-Gesellschaft zur Forderung der Wissen, priority 2004, dated 2011)

Key:
IPC-298 melanoma cells [1] = test: IPC-298 cell proliferation assay (AlamarBlue); type: cell-based, human; details: 5 μg/ml antibody, 7 days, pre-incubation with 40 mM KCl
Procedure: In vitro experiments were conducted in order to determine the ability of the antibodies of the invention to inhibit cancer cell proliferation. 1000 IPC-298 cells were seeded in 60 μl/well 10% FCS-containing medium (DMEM […] glucose) on 96-well plates overnight. Cells were pre-incubated in quadruplicates with 5 μg/ml anti-Eag1 monoclonal antibodies, ImAb1 and ImAb3, diluted in FCS-containing medium with 40 mM KCl for 1 h at 37° C. in 5% CO2. Treatment of the cells with 40 mM KCl ensures an open conformation of the ion channel Eag1 and might accelerate binding of the monoclonal anti-EAG1 antibodies to its corresponding epitope. After 1 h incubation, supernatants were removed and replaced with 100 μl/well FCS-containing medium with 5 μg/ml anti-Eag1 antibodies, ImAb1 and ImAb3. Cells were then incubated at 37° C. in 5% CO2 for 7 days. In order to assess proliferation and cell viability 10 μl/well AlamarBlue™ (BIOSOURCE) was added and incubated at 37° C. in the dark. Absorbance was measured using a spectrofluorometer at 590 nm every 30 min.

[2] = biological target: T1, Eag1 in rat brain sections (Rattus norvegicus, UniProt Q63472); test: Immunohistochemistry of rat brain sections (cerebellum, hippocampus); type: binding; details: ImAb1 4 μg/ml, ImAb4 2 μg/ml, overnight 4° C.
T1 construct: from tissue; host or cells: brain (cerebellum, hippocampus) of postnatal-day 21 Sprague Dawley rats
T1 sequence (Q63472 1-962): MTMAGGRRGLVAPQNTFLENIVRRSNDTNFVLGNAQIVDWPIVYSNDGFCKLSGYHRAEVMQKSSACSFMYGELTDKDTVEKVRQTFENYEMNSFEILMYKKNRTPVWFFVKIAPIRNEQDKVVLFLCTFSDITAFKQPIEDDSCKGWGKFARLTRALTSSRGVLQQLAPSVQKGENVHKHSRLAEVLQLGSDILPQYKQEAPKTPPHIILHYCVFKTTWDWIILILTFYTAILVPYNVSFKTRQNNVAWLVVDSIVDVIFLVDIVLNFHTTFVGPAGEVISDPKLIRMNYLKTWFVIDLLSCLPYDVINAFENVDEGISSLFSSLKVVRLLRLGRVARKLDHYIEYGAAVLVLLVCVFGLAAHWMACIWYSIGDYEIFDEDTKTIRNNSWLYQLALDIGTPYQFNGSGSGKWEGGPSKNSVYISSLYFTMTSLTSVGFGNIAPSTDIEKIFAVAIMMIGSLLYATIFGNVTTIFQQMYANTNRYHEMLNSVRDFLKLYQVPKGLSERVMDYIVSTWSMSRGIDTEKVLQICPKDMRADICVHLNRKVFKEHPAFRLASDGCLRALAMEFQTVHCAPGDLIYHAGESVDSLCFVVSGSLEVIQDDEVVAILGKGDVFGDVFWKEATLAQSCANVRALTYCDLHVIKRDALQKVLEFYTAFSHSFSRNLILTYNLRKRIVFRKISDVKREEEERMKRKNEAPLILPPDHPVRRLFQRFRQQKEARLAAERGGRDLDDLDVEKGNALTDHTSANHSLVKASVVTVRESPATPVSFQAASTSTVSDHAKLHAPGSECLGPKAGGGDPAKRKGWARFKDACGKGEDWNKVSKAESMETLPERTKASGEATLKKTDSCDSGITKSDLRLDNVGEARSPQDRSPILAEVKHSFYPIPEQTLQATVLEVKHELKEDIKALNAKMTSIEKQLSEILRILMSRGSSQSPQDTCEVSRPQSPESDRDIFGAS
Procedure: Cross-reactivity of anti-Eag1 antibodies of the invention were further analysed by Immunohistochemistry studies of rat brain sections of the cerebellum and the hippocampus. For the IHC, two postnatal-day 21 Sprague Dawley rats were anesthetized with a mixture of ketamine HCl (Ketaset; 100 mg/ml; Fort Dodge Laboratories, Inc., U.S.A.) and xylazine (Rompun; 20 mg/ml; Mile, Inc., U.S.A.) at 0.1 ml/100 g body weight. The animals were transcardially perfused with a fixative consisting of 4% p-formaldehyde in 0.12 M phosphate buffer (pH 7.2). After perfusion, brains were removed, fixed for an additional hour at 4° C., rinsed three times with PBS and stored overnight at 4° C. Coronal and sagital sections (40-50 μm) were cut in cold PBS using a vibratome (Leica, Vienna, Austria). Slices were incubated for 1 h with 10% normal goat serum in PBS, then with anti-Eag1 antibodies ImAb1 (4 μg/ml) and ImAb4 (2 μg/ml) in PBS overnight at 4° C. and processed using the avidin/biotin-peroxidase system (Vectastain kit, Vector Laboratories, Burlingame, Calif.). Antibody binding was visualized using 3′-3-diaminobenzidine tetrahydrochloride (DAB; DAB substrate kit for peroxidase, Vector Laboratories). […] Sections were analysed with a Zeiss Axiophot microscope.

[3] = test system: Eag1 peptides (pore domain / CAD domain of immunogen); test: Epitope mapping on SPOT cellulose membrane with 76 overlapping peptides; type: binding; details: 76 overlapping 13 mer peptides, shift 2 aa; antibody diluted 1:2000
[4] = test system: Eag1 overexpressing CHO K1 cells; test: Internalization of Cy3-labelled antibodies, immunofluorescence on living cells; type: cell-based; details: Cy3-labelled antibody; for binding to Eag1 antigen on living cells: overnight; for internalization into cells: within 24 h
Procedure: In order to analyse the internalization properties of the anti-Eag1 antibodies of invention, CHO cells were grown on coverslips and incubated in normal medium (Ham's F12, 10% FCS) overnight (37 C, 5% CO2) with anti-Eag1 antibodies ImAb1 and ImAb4 directly labeled with Cy3 (100 μg). Cultures were thereafter incubated with app. 2 μg/ml Hoechst 33342 for 10 min.

IPC-298 melanoma cells [5] = test: Soft agar assay IPC-298 with secondary immunotoxin Mab-ZAP; type: cell-based, human; details: 2.5 ng antibody with 100 pg Mab-ZAP, 10 days
Procedure: For comparison Mab-ZAP was pre-incubated with 2.5 ng control IgG. After 30 min pre-incubation, 2000 IPC-298 cells in OptiMEM with 20 mM KCl were added and further incubated at 37° C. for 30 min. IPC-298 cells, pre-incubated with immunotoxin-labelled anti-EAG1 antibody, were resuspended in 50 μl/well 0.25% Difco noble agar containing OptiMEM with 0.5% FCS and plated on 50 μl/well 0.5% agarose underlayer containing OptiMEM with 0.5% FCS in quadruplicates. Additionally, 50 μl/well 0.25% feeding agar containing OptiMEM with 0.5% FCS was plated. Colonies were allowed to form for 10 days and were stained with 50 μl MTT (1 mg/ml in PBS) for 1.5 hours. Wells were scanned using an Epson scanner and colonies were counted using the Scion Image software.

B1: ImAb1: mouse monoclonal anti-Eag1 antibody; VL SEQ ID NO: 43, VH SEQ ID NO: 44; binds C-terminus of Eag1 (antibody, listed as Mus musculus)
heavy: MNFGFSLIFLVLVLKGVQCEVKLVESGGGLVKPGGSLKLSCAASGFTFSNYAMSWVRQTPEKRLEWVASISSDGDTYFPDNVKGRFTISRENAGNILFLQMSSLRSEDTAMYYCARGFMITFWGQGTLVTVSAAKTTPPSVYPLAPGCGDTTGSSVTLGCLVKGYFPESVTVTWNSGSLSSSVHTFPALLQSGLYTMSSSVTVPSSTWPSQTVTCSVAHPASSTTVD
light: MDMRAPAQFFGILLLWFPGIRCDIKMTQSPSSMYASLGERVTITCKASQDIKSYLSWYQQKPWKSPKILIYYATSLADGVPSRISGSGSGQDYSLTISSLESDDTATYYCLQHGESPYTFGGGTKLEIKRADAAPTVSIFPPSSEQLTSGGASVVCFLNNFYPKDINVKWKIDGSERQNGVLNSWTDQDSKDSTYSMSSTLTLTKDEYERHNSYTCEATHKTSTSPIVKSFNRNEC
inhibition of cell proliferation (IPC-298 melanoma cells [1]): inhibit human cancer cell growth
cross-reactivity with rat (IHC staining) [2]: cross-reacts with other mammalian species such as rat
peptide spots bound (epitope) [3]: bound weakly to peptides 21-24
binding to Eag1 antigen on living cells [4]: bind to Eag1 antigen on living cells expressing the antigen
internalization into cells [4]: are internalized into the cells

B2: ImAb4: mouse monoclonal anti-Eag1 antibody, IgG2b kappa; light chain SEQ ID NO: 2, heavy chain SEQ ID NO: 4 (antibody, listed as Mus musculus)
heavy: MRVLILLWLFTAFPGILSDVQLQESGPGLVKPSQSLSLTCTVTGYSITSDYAWNWIRQFPGNKLEWMGYISYSGSTIYNPSLKSRISITRDTSKNQFFLQLNSVTTEDTATYYCARFGNYGNTLNYWGQGTSVTVSSAKTTPPSVYPLAPGCGDTTGSSVTLGCLVKGYFPESVTVTWNSGSLSSSVHTFPALLQSGLYTMSSSVTVPSSTWPSQTVTCSVAHPASSTTVDKKLEPSGPISTINPCPPCKECHKCPAPNLEGGPSVFIFPPNIKDVLMISLTPKVTCVVVDVSEDDPDVQISWFVNNVEVHTAQTQTHREDYNSTIRVVSTLPIQHQDWMSGKEFKCKVNNKDLPSPIERTISKIKGLVRAPQVYILPPPAEQLSRKDVSLTCLVVGFNPGDISVEWTSNGHTEENYKDTAPVLDSDGSYFIYSKLNMKTSKWEKTDSFSCNVRHEGLKNYYLKKTISRSPGK
light: MKLPVRLLVLMFWIPASSSDVVMTQTPLSLPVSLGDQASISCRSSQSLVHSNGNTYLHWYLQKPGQSPKLLIYKVSNRFSGVPDRFSGSGSGTDFTLKISRVEAEDLGVYFCSQSTHVPPTFGGGTKLEIKRADAAPTVSIFPPSSEQLTSGGASVVCFLNNFYPKDINVKWKIDGSERQNGVLNSWTDQDSKDSTYSMSSTLTLTKDEYERHNSYTCEATHKTSTSPIVKSFNRNEC
inhibition of anchorage independent cell growth (IPC-298 melanoma cells [5]): inhibits anchorage independent tumor cell growth
cross-reactivity with rat (IHC staining) [2]: cross-reacts with other mammalian species such as rat
peptide spots bound (epitope) [3]: bound at spots 3-8
binding to Eag1 antigen on living cells [4]: bind to Eag1 antigen on living cells expressing the antigen
internalization into cells [4]: are internalized into the cells
